B1: MMP1 (parent)
chain: FVRGDHRDNSPFDGPGGNLAHAFQ
B2: FCHSD1 (parent)
chain: LQEPGVFSPTPPQQFQPAGTDQVC
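Note: lentivirally expressed fusions sorted by FACS into six bins by GFP to DsRed ratio, PSI derived from sequencing read proportions per bin multiplied by bin number.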

In the first data set the parent is B1. Put plainly: protein stability index of a GFP-peptide fusion (GPS, HEK-293T) (PSI 1-6); higher = more stable. The conditions noted are these: c terminus: a fixed tail appended.
With FVRGDHRLNSPFDGPGGNLAHAFQ [D8L], the protein stability index is 2.25.

Regarding FVRGDHRMNSPFDGPGGNLAHAFQ [D8M], the protein stability index came to 3.46. FVRGDHRQNSPFDGPGGNLAHAFQ [D8Q]: the protein stability index was determined as 3.21. Turning to FVRGDHRANSPFDGPGGNLAHAFQ [D8A], the protein stability index was 1.63.

Turning to FVRGDHRFNSPFDGPGGNLAHAFQ [D8F], the protein stability index was determined as 4.46.

Regarding FVRGDHRENSPFDGPGGNLAHAFQ [D8E], the protein stability index was found to be 1.31. Take FVRGDHRINSPFDGPGGNLAHAFQ [D8I]: the protein stability index stood at 1.87. On to FVRGDHRNNSPFDGPGGNLAHAFQ [D8N], for which the protein stability index was determined as 2.68.

Regarding FVRGDHRWNSPFDGPGGNLAHAFQ [D8W], the protein stability index came out at 3.09.

As to FVRGDHRVNSPFDGPGGNLAHAFQ [D8V], the protein stability index amounted to 2.25. On to FVRGDHRPNSPFDGPGGNLAHAFQ [D8P], for which the protein stability index worked out at 2.12.

Take FVRGDHRGNSPFDGPGGNLAHAFQ [D8G]: the protein stability index was found to be 1.84. Take FVRGDHRSNSPFDGPGGNLAHAFQ [D8S]: the protein stability index was found to be 2.08. Regarding FVRGDHRTNSPFDGPGGNLAHAFQ [D8T], the protein stability index amounted to 2.28. Take FVRGDHRKNSPFDGPGGNLAHAFQ [D8K]: the protein stability index worked out at 2.78.

As to FVRGDHRCNSPFDGPGGNLAHAFQ [D8C], the protein stability index was found to be 3.26. With FVRGDHADNSPFDGPGGNLAHAFQ [R7A], the protein stability index came to 2.02. Still for that read-out and setting: under FVRGDHGDNSPFDGPGGNLAHAFQ [R7G] stands 1.26; under FVRGDHIDNSPFDGPGGNLAHAFQ [R7I], 2.77; under FVRGDHQDNSPFDGPGGNLAHAFQ [R7Q], 2.55. For FVRGDHLDNSPFDGPGGNLAHAFQ [R7L], the protein stability index worked out at 3.54. For FVRGDHKDNSPFDGPGGNLAHAFQ [R7K], the protein stability index stood at 1.68. The same measure, in the same setting: under FVRGDHFDNSPFDGPGGNLAHAFQ [R7F] stands 2.83; under FVRGDHTDNSPFDGPGGNLAHAFQ [R7T], 2.18; under FVRGDHMDNSPFDGPGGNLAHAFQ [R7M], 1.78.

Consider FVRGDHCDNSPFDGPGGNLAHAFQ [R7C], for which the protein stability index amounted to 1.82. As to FVRGDHDDNSPFDGPGGNLAHAFQ [R7D], the protein stability index was found to be 1.56. On to FVRGDHHDNSPFDGPGGNLAHAFQ [R7H], for which the protein stability index is 2.91.

As for FVRGDHVDNSPFDGPGGNLAHAFQ [R7V], the protein stability index is 2.04. Turning to FVRGDHSDNSPFDGPGGNLAHAFQ [R7S], the protein stability index is 1.37. FVRGDHWDNSPFDGPGGNLAHAFQ [R7W]: the protein stability index was 2.33. Turning to FVRGDHYDNSPFDGPGGNLAHAFQ [R7Y], the protein stability index was determined as 2.18. With FVRGDHPDNSPFDGPGGNLAHAFQ [R7P], the protein stability index turned out to be 2.8.

FVRGDHNDNSPFDGPGGNLAHAFQ [R7N]: the protein stability index was 1.7. Consider FVRGDHEDNSPFDGPGGNLAHAFQ [R7E], for which the protein stability index was found to be 1.91.

As to FVRGDHRDNSCFDGPGGNLAHAFQ [P11C], the protein stability index came to 2.61.

Turning to FVRGDHRDNSIFDGPGGNLAHAFQ [P11I], the protein stability index is 1.7. For FVRGDHRDNSFFDGPGGNLAHAFQ [P11F], the protein stability index came to 1.83. For FVRGDHRDNSDFDGPGGNLAHAFQ [P11D], the protein stability index worked out at 2.79.

Turning to FVRGDHRDNSAFDGPGGNLAHAFQ [P11A], the protein stability index amounted to 1.81. The same measure, in the same setting: under FVRGDHRDNSGFDGPGGNLAHAFQ [P11G] stands 2.89. On to FVRGDHRDNSEFDGPGGNLAHAFQ [P11E], for which the protein stability index was found to be 2.06. The same measure, in the same setting: as for FVRGDHRDNSHFDGPGGNLAHAFQ [P11H], the figure is 1.5; as for FVRGDHRDISPFDGPGGNLAHAFQ [N9I], 3.22. For FVRGDHRDHSPFDGPGGNLAHAFQ [N9H], the protein stability index stood at 4.14. Turning to FVRGDHRDGSPFDGPGGNLAHAFQ [N9G], the protein stability index amounted to 1.38. On to FVRGDHRDVSPFDGPGGNLAHAFQ [N9V], for which the protein stability index was determined as 1.87. Consider FVRGDHRDLSPFDGPGGNLAHAFQ [N9L], for which the protein stability index was 2.31.

For FVRGDHRDESPFDGPGGNLAHAFQ [N9E], the protein stability index was determined as 2.15. Consider FVRGDHRDCSPFDGPGGNLAHAFQ [N9C], for which the protein stability index worked out at 1.93. As to FVRGDHRDMSPFDGPGGNLAHAFQ [N9M], the protein stability index came to 2.27.

As for FVRGDHRDFSPFDGPGGNLAHAFQ [N9F], the protein stability index stood at 3.83.

FVRGDHRDDSPFDGPGGNLAHAFQ [N9D]: the protein stability index worked out at 1.8. On to FVRGDHRDTSPFDGPGGNLAHAFQ [N9T], for which the protein stability index turned out to be 2.13. On the same count and under the same terms, under FVRGDHRDQSPFDGPGGNLAHAFQ [N9Q] stands 2.07; under FVRGDHRDPSPFDGPGGNLAHAFQ [N9P], 2.4; under FVRGDHRDASPFDGPGGNLAHAFQ [N9A], 2.53. On the same count and under the same terms, as for FVRGDHRDYSPFDGPGGNLAHAFQ [N9Y], the figure is 2.58; as for FVRGDHRDSSPFDGPGGNLAHAFQ [N9S], 2.41.

Take FVRGDHRDWSPFDGPGGNLAHAFQ [N9W]: the protein stability index amounted to 2.12.

Take FVRGDHRDKSPFDGPGGNLAHAFQ [N9K]: the protein stability index amounted to 2.47. Turning to FVEGDHRDNSPFDGPGGNLAHAFQ [R3E], the protein stability index worked out at 2.73.

As for FVMGDHRDNSPFDGPGGNLAHAFQ [R3M], the protein stability index is 1.57. With FVYGDHRDNSPFDGPGGNLAHAFQ [R3Y], the protein stability index stood at 1.93.

Regarding FVSGDHRDNSPFDGPGGNLAHAFQ [R3S], the protein stability index turned out to be 1.99. FVAGDHRDNSPFDGPGGNLAHAFQ [R3A]: the protein stability index came out at 1.63. Regarding FVCGDHRDNSPFDGPGGNLAHAFQ [R3C], the protein stability index was 3.82. Same read-out and setting: under FVWGDHRDNSPFDGPGGNLAHAFQ [R3W] stands 1.86. Take FVHGDHRDNSPFDGPGGNLAHAFQ [R3H]: the protein stability index turned out to be 1.85.

FVGGDHRDNSPFDGPGGNLAHAFQ [R3G]: the protein stability index came out at 1.3. As to FVQGDHRDNSPFDGPGGNLAHAFQ [R3Q], the protein stability index came out at 1.71.

As to FVDGDHRDNSPFDGPGGNLAHAFQ [R3D], the protein stability index was determined as 1.73.

For the variant FVVGDHRDNSPFDGPGGNLAHAFQ [R3V], the protein stability index was determined as 2.37. Take FVFGDHRDNSPFDGPGGNLAHAFQ [R3F]: the protein stability index is 1.69. In the case of FVLGDHRDNSPFDGPGGNLAHAFQ [R3L], the protein stability index is 2.13. In the case of FVTGDHRDNSPFDGPGGNLAHAFQ [R3T], the protein stability index is 2.13. Still for that read-out and setting: as for FVKGDHRDNSPFDGPGGNLAHAFQ [R3K], the figure is 1.45. On the same count and under the same terms, as for FVPGDHRDNSPFDGPGGNLAHAFQ [R3P], the figure is 1.44; as for FVIGDHRDNSPFDGPGGNLAHAFQ [R3I], 2.11; as for FVNGDHRDNSPFDGPGGNLAHAFQ [R3N], 2.34. For FVRGWHRDNSPFDGPGGNLAHAFQ [D5W], the protein stability index turned out to be 2.86. Turning to FVRGNHRDNSPFDGPGGNLAHAFQ [D5N], the protein stability index is 2.52.

For the variant FVRGEHRDNSPFDGPGGNLAHAFQ [D5E], the protein stability index was 1.5.

As for FVRGRHRDNSPFDGPGGNLAHAFQ [D5R], the protein stability index was determined as 3.46. For the variant FVRGIHRDNSPFDGPGGNLAHAFQ [D5I], the protein stability index is 1.66. On the same count and under the same terms, under FVRGFHRDNSPFDGPGGNLAHAFQ [D5F] stands 2.45; under FVRGTHRDNSPFDGPGGNLAHAFQ [D5T], 3.73; under FVRGPHRDNSPFDGPGGNLAHAFQ [D5P], 2.27. FVRGAHRDNSPFDGPGGNLAHAFQ [D5A]: the protein stability index was 2.15.

As to FVRGKHRDNSPFDGPGGNLAHAFQ [D5K], the protein stability index was 3.58.

For FVRGGHRDNSPFDGPGGNLAHAFQ [D5G], the protein stability index is 1.34.

Take FVRGVHRDNSPFDGPGGNLAHAFQ [D5V]: the protein stability index is 1.81. As for FVRGSHRDNSPFDGPGGNLAHAFQ [D5S], the protein stability index was determined as 2.75.

In the next data set the parent is B2. The data set is described as above. The conditions noted are these: c terminus: a fixed tail appended.
With LQEPGVFSITPPQQFQPAGTDQVC [P9I], the protein stability index was 4.03.

Source of the values: the supplement of paper PMC10567573.
